In patent publication US5294543:

Target: fibrinogen receptor on platelets (Homo sapiens (Human)) (UniProt P08514)

IC50 of inhibition of platelet aggregation induced by 5 µM ADP: 16 nM
Substance: chrysoptin
